From patent publication US20230031262A1, “TREATMENT OF MILD TRAUMATIC BRAIN INJURY” (OXEIA BIOPHARMACEUTICALS, INC., priority 2019, published 2023)
Where no end group is shown, it is not given here. The star is where a group is joined. Octanoyl = CCCCCCCC(=O)*

What was measured:
[1] = in vivo; cited from earlier work
[2] = in vivo; cited from earlier work; remark: listed apart in the source
[3] = stability of reconstituted OXE-103 drug product on storage; assay type: physicochemical; settings: reconstituted OXE-103 for SC administration 14 mg in 5 mL multi-use vials
Description: OXE-103 drug product, placebo, and diluent are stored refrigerated between 2° C. to 8° C. (35.6° F. to 46.4° F.). Reconstituted OXE-103 for SC administration 14 mg (in 5 mL multi-use vials) is stable for up to 14 days at 10° C. or for up to 3 days when stored at 25° C./1000 Lux. The reconstituted drug product (and placebo) is stored refrigerated at 2° C. to 8° C. (35.6° F. to 46.4° F.).

[4] = in vivo; cited from earlier work; remark: listed apart in the source

In the case of “ghrelin (GSS(Octanoyl)FLSPEHQRVQQRKESKKPPAKLQPR; UniProt Q9UBU3 24-51, looked up) [OXE-103]”, the safety [1] is given as “quite safe”, the serum half-life [2] is given as “about 30 minutes” and the “stable for up to (reconstituted, storage time)” value ([3]; at 10° C.) is given as “up to 14 days”. The “stable for up to (reconstituted, storage time)” value ([3]; stored at 25° C./1000 Lux) was “up to 3 days” and the “adverse effects of long term use” value [4] was “increased appetite, weight gain, and adiposity”.
